Key:
[1] = molecular target: T1, hANGPTL3(17-460)-His (human, UniProt Q9Y5C1 17-460); assay: SPR Biacore, antigen captured, 25C, pH 7.4, HBS-EP
T1 construct: Bought protein (R&D Systems); also called full-length mature human ANGPTL3 with a C-terminal decahistidine tag; Human ANGPTL3 (17-460)-His
T1 sequence: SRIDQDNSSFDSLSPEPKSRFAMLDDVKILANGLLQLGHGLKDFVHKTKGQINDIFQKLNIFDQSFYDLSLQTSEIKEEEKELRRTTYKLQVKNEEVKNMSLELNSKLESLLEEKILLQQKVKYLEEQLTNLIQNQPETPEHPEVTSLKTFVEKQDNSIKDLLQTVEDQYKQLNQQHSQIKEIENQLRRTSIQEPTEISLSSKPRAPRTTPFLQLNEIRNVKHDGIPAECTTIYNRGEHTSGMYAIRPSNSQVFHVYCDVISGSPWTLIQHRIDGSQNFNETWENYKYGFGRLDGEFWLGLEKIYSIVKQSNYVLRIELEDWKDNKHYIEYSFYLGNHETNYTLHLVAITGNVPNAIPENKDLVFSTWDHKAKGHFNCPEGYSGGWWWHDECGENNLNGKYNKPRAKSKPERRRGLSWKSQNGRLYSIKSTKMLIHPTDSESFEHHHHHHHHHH
Description: (§1) All kinetic binding experiments were performed at 25° C. or 37° C. on a BIACORE™ T200 label-free molecular interaction instrument (GE Healthcare) using a CM5 sensor chip. Briefly, an antigen capture surface was generated by covalently coupling either an anti-mouse IgG-specific antibody (anti-mFc; GE Healthcare; catalog #BR-1008-38) or an anti-pentahistidine-specific antibody (Qiagen; catalog #34660) to the surface of a CM5 sensor chip using a standard amine coupling method.

[2] = molecular target: T2, hANGPTL3(17-169)-mFc (human); assay: SPR Biacore, antigen captured, 25C, pH 7.4, HBS-EP
T2 construct: also called N-terminal coiled-coil domain of hANGPTL3 with a C-terminal mouse Fc fusion
T2 chain: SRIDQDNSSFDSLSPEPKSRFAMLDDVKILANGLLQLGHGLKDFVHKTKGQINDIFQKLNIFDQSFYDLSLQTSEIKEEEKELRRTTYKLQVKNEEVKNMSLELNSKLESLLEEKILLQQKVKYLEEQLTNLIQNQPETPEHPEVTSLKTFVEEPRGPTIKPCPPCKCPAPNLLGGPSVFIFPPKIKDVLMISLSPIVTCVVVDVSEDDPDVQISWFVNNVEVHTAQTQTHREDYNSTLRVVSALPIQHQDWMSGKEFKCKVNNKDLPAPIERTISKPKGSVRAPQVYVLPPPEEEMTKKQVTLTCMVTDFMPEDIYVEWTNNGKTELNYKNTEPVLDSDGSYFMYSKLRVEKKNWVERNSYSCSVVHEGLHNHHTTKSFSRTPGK
Description: as §1

[3] = molecular target: T1, hANGPTL3(17-460)-His; assay: SPR Biacore, antigen captured, 37C, pH 7.4, HBS-EP
Description: as §1

[4] = molecular target: T3, mANGPTL3(17-455)-His (Mus musculus, UniProt Q9R182 17-455); assay: SPR Biacore, antigen captured, 37C, pH 7.4, HBS-EP
T3 construct: Bought protein (R&D Systems); also called full-length mature ANGPTL3 from Mus musculus with a C-terminal decahistidine tag
T3 sequence: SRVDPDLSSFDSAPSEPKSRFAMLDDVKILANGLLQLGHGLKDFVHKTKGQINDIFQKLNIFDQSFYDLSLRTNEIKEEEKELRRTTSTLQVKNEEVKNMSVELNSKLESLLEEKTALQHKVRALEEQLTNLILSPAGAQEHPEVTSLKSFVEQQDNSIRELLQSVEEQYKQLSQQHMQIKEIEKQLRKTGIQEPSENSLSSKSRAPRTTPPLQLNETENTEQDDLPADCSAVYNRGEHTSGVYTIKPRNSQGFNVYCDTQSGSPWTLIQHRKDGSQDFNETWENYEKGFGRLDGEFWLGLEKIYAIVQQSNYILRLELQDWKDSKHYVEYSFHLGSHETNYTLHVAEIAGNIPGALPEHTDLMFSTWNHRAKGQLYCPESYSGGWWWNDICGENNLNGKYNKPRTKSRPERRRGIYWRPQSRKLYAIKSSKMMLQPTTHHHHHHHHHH
Description: as §1

[5] = molecular target: T1, hANGPTL3(17-460)-His; assay: Biacore cross-competition, 25C; first antibody at 25 µg/ml on captured antigen
Description: (§2) Cross competition experiments were performed at 25° C. on a Biacore essentially as described in Example 3 above. […] The results are shown in Table 8 with binding response for the first antibody (mAb1), followed by binding response of the second antibody (mAb2) on the ANGPTL3 surface pre-loaded with the first antibody. Numbers in bold indicate that the antibody pairs are able to bind to hANGPTL3 simultaneously. Numbers in italics indicate that that the antibody pairs are able to bind to hANGPTL3 simultaneously when added sequentially in one direction but not the other. Brackets indicate self-self competition.

[6] = molecular target: T1, hANGPTL3(17-460)-His; assay: Biacore cross-competition; second antibody after pre-loading with Negative Control
Description: as §2

[7] = molecular target: T1, hANGPTL3(17-460)-His; assay: Biacore cross-competition; second antibody after pre-loading with competitor H1M896N
Description: as §2

[8] = molecular target: T1, hANGPTL3(17-460)-His; assay: Biacore cross-competition; second antibody after pre-loading with competitor H4H1279P
Description: as §2

[9] = molecular target: T1, hANGPTL3(17-460)-His; assay: Biacore cross-competition; second antibody after pre-loading with competitor H4H1292P
Description: as §2

[10] = molecular target: T1, hANGPTL3(17-460)-His; assay: Biacore cross-competition; second antibody after pre-loading with competitor H4H1250P
Description: as §2

B1: H4H1250P (antibody, IgG4, V domains shown)
VH: QVQLVESGGGVVQPGRSLRLSCAASGFTFSSYGMHWVRQAPGKGLEWVAVISNDGSNKYYVDSVKGRFTMGRDNSKNTLYLQMNSLRVEDTAVYYCAKGAGTLYYYYYGMDVWGQGTTVTVSS
VL: DIQMTQSPSTLSASVGNRVTITCRASQSISSWLAWYQQKPGKAPKFLIYKASSLESGVPSRFSGSGSGTEFTLTITSLQPDDFATYYCQQYNIYSWTFGQGTKVEIK
Kd [1]: 0.726 nM | koff [1]: 0.000657 s⁻¹ | kon [1]: 904000 M⁻¹ s⁻¹ | t1/2 [1]: 18 min | Kd [2]: 0.519 nM | koff [2]: 0.000651 s⁻¹ | kon [2]: 1.25e+06 M⁻¹ s⁻¹ | t1/2 [2]: 0.3 h | Kd [3]: 0.324 nM | koff [3]: 0.00113 s⁻¹ | kon [3]: 3.5e+06 M⁻¹ s⁻¹ | t1/2 [3]: 10 min | Kd [4]: 0.486 nM | koff [4]: 0.00155 s⁻¹ | kon [4]: 3.18e+06 M⁻¹ s⁻¹ | t1/2 [4]: 7 min | mAb1 binding response (RU) [5]: 210 RU | mAb2 binding response (RU) [6]: 187 RU | mAb2 binding response (RU) [7]: -4 RU | mAb2 binding response (RU) [8]: 213 RU | mAb2 binding response (RU) [9]: 220 RU

B2: H1M896N (antibody, V domains shown)
VH: EVQLLESGGGLVQPGGSLRLSCAASGFTFSTYAMSWVRQAPGKGLEGVSGISGTGYRTYYADSVKGRFTISRDNSKNSLYLQMNSLRAEDTAVYYCAKDRGLLWFGELTYWGQGTLVTVSS
VL: DIQMTQSPSTLSASVGDRVTITCRASQSINNWLAWYQQKPGKAPNLLIYKASSLESGVPSRFSGSGSGTEFTLTISSLQPDDFATYYCQQYNDYWTFGQGTKVEIK
Kd [3]: 0.158 nM | koff [3]: 0.00053 s⁻¹ | kon [3]: 3.36e+06 M⁻¹ s⁻¹ | t1/2 [3]: 22 min | Kd [4]: 0.682 nM | koff [4]: 0.00247 s⁻¹ | kon [4]: 3.62e+06 M⁻¹ s⁻¹ | t1/2 [4]: 5 min | mAb1 binding response (RU) [5]: 171 RU | mAb2 binding response (RU) [6]: 149 RU | mAb2 binding response (RU) [10]: -4 RU | mAb2 binding response (RU) [8]: 186 RU | mAb2 binding response (RU) [9]: 182 RU

B3: H4H1279P (antibody, IgG4, V domains shown)
VH: QVQLVESGGGLVKPGGSLRLSCAASGFTFSDYYMSWIRQAPGKGLEWVSYIGSSGVNMYYADSVKGRFTISRDNAKNSLYLEMNSLRAEDTAVYYCARDSSQLGFDYWGQGTLVTVSS
VL: DIQMTQSPSSLSASVGDRVTITCRTSQNIINFLNWYQQKPGKAPKLLIYTTSTLQSGVPSRFSGSGSGTDFTLSINSLQPEDFATYFCQQTYSNPLTFGGGTKLEIKR
Kd [1]: 0.394 nM | koff [1]: 0.000114 s⁻¹ | kon [1]: 288000 M⁻¹ s⁻¹ | t1/2 [1]: 102 min | Kd [2]: 0.00841 nM | koff [2]: 5.53e-06 s⁻¹ | kon [2]: 658000 M⁻¹ s⁻¹ | t1/2 [2]: 34.8 h | Kd [3]: 0.381 nM | koff [3]: 0.00181 s⁻¹ | kon [3]: 4.74e+06 M⁻¹ s⁻¹ | t1/2 [3]: 6 min | Kd [4]: 0.167 nM | koff [4]: 0.000359 s⁻¹ | kon [4]: 2.15e+06 M⁻¹ s⁻¹ | t1/2 [4]: 32 min | mAb1 binding response (RU) [5]: 45 RU | mAb2 binding response (RU) [6]: 47 RU | mAb2 binding response (RU) [7]: 47 RU | mAb2 binding response (RU) [10]: 9 RU | mAb2 binding response (RU) [9]: -3 RU

B4: H4H1292P (antibody, IgG4, V domains shown)
VH: QVQLVESGGGLVKPGGSLRLSCAASGFTFSDYYMSWIRQAPGKGLEWVSYISSSGSTIYYADSVKGRFTISRDNAKNSLYLQMNSLRAEDTAVYYCARDSSQLGFDYWGQGTLVTVSS
VL: DIQMTQSPSSLSASVGDRVTITCRASQSIISFLNWYQQKPGKAPKLLIYTASSLQSGVPSRFSGSGSGTDFTLTISSLQPEDFATYYCQQTYSNPLTFGGGTKVEIKR
Kd [1]: 0.727 nM | koff [1]: 0.000248 s⁻¹ | kon [1]: 341000 M⁻¹ s⁻¹ | t1/2 [1]: 47 min | Kd [2]: 0.257 nM | koff [2]: 0.000177 s⁻¹ | kon [2]: 686000 M⁻¹ s⁻¹ | t1/2 [2]: 1.08 h | Kd [3]: 1.02 nM | koff [3]: 0.00194 s⁻¹ | kon [3]: 1.89e+06 M⁻¹ s⁻¹ | t1/2 [3]: 6 min | Kd [4]: 0.38 nM | koff [4]: 0.00149 s⁻¹ | kon [4]: 3.92e+06 M⁻¹ s⁻¹ | t1/2 [4]: 8 min | mAb1 binding response (RU) [5]: 48 RU | mAb2 binding response (RU) [6]: 48 RU | mAb2 binding response (RU) [7]: 50 RU | mAb2 binding response (RU) [10]: 8 RU | mAb2 binding response (RU) [8]: -1 RU

From patent US20150197564A1 (Regeneron, published 2015)
